From patent publication US20160031978

Biological target: Δ144-273 tau (full-length tau with deletion of amino acids 144-273) (UniProt P10636)
Sequence (P10636 whole entry, looked up, stated change not applied, the tested form may be a part): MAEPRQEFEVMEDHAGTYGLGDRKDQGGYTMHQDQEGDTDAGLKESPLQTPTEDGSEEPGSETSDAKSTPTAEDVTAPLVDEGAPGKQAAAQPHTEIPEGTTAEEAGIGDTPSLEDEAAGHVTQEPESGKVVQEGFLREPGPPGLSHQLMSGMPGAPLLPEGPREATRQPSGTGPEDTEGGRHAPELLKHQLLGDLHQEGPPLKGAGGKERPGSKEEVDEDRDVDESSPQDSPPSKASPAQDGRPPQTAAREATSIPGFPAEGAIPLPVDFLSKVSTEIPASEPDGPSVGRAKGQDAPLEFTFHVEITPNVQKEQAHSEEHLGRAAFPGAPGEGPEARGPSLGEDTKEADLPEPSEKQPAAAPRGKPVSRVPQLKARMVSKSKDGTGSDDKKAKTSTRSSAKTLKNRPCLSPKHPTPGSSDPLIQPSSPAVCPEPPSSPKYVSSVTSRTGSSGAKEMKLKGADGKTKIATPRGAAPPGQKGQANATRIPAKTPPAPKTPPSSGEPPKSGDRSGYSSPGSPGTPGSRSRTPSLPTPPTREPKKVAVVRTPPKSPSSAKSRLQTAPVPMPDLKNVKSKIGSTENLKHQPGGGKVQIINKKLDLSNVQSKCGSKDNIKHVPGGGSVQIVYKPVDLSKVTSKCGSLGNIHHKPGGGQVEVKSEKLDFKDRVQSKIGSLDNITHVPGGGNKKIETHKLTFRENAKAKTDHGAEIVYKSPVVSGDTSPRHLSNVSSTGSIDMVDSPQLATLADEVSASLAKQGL

Substance: active fyn kinase
- in vitro phosphorylation at Tyr18 (9G3/R1 immunoblot ratio): When compared to wild-type tau, AT8 tau and A144-273 tau had a slower rate and lower maximal level of phosphorylation at Tyr18
